Measured values reported in patent publication US20240325555A1 (LANOVA MEDICINES, published 2024).

T1: human LIV-1 (human, UniProt Q13433 29-755)
T1 sequence (looked up): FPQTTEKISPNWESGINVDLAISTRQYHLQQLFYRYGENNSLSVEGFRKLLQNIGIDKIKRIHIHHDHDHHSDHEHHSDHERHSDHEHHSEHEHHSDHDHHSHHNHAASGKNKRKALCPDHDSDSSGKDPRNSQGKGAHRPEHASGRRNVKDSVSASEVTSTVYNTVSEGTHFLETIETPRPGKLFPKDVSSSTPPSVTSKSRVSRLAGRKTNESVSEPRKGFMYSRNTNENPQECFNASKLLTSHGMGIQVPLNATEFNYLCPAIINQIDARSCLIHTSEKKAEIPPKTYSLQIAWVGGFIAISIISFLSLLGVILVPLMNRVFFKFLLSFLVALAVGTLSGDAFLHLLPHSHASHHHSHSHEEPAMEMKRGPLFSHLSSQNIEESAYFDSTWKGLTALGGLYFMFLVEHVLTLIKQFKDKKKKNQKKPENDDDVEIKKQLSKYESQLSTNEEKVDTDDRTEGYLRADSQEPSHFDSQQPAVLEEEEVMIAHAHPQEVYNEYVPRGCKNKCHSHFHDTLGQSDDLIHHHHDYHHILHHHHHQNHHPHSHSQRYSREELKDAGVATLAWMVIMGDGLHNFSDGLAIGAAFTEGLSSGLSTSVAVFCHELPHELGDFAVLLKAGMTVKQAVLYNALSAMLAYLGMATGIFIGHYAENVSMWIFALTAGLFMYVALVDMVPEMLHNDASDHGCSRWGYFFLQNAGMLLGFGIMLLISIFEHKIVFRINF


How the values were obtained:
human LIV-1 [1] = target: T1, human LIV-1; test: cell-based or functional assay
human LIV-1 [2] = target: T1, human LIV-1; test: cell-based or functional assay; remark: listed apart in the source
human LIV-1 [3] = target: T1, human LIV-1; test: FACS, HEK293/H_LIV-1 cells
Protocol: (§1) In this example, cell based binding of chimeric Abs on human and cyno LIV-1 over-expressing HEK 293 cells were assessed using flow cytometry.
(§2) Briefly, cells were incubated with chimeric Abs (from 100 nM, 5 folds dilution, 8 points). After incubation at 4° C. for 60 minutes, the cells were washed with 2% FBS/PBS buffer twice, then stained with fluorescent conjugated secondary antibody at 4° C. for 30 minutes. After that the cells were washed twice and resuspended in 80 μL of 2% FBS/PBS buffer. Fluorescent signal of binding was detected using Agilent. The EC50 was calculated using the GraphPad Software (LaJolla, CA).

cynomolgus LIV-1 [4] = target: T2, cynomolgus LIV-1 (cynomolgus, UniProt A0A2K5WH46 30-741); test: FACS, HEK293/Cyno_LIV-1 cells
Protocol: as §1, §2

cynomolgus LIV-1 [5] = target: T2, cynomolgus LIV-1; test: FACS, cyno LIV-1 cells
Target sequence in this assay (A0A2K5WH46 entry or part of it): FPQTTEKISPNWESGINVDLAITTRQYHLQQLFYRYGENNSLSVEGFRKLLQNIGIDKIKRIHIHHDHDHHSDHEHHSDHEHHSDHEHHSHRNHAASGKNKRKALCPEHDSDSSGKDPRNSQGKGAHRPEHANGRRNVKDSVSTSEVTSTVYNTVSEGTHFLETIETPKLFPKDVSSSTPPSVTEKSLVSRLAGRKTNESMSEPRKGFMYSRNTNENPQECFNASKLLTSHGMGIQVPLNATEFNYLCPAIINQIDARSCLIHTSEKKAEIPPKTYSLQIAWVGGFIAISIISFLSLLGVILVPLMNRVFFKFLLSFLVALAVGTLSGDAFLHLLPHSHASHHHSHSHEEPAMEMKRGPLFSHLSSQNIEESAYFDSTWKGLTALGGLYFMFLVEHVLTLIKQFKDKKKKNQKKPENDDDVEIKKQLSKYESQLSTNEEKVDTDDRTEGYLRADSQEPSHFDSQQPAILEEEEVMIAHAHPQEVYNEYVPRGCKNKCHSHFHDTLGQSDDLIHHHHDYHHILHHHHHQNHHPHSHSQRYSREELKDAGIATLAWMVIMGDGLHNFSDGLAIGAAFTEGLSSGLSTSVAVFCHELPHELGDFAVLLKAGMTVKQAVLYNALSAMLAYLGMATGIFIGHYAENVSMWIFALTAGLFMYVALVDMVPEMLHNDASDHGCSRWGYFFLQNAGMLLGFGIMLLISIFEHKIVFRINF

human LIV-1 [6] = target: T1, human LIV-1; test: FACS, human LIV-1 cells
Protocol: In this example, cell based binding of humanized antibodies (hu Abs) on human LIV-1-expressing cells were assessed using flow cytometry.
Cell based binding of hu-Abs on human LIV-1 expressing cells were assessed using flow cytometry. Briefly, the HEK293/H_LIV-1 cells were incubated with hu-Abs (from 100 nM, 6 folds dilution, 8 points). After incubation at 4° C. for 60 minutes, the cells were washed with FACS buffer twice, then stained with fluorescent conjugated secondary antibody at 4° C. for 30 minutes. After that the cells were washed twice and analyzed by flow cytometry.

Binder	ADCC reporter EC50 (human LIV-1 [1])	ADCC reporter Top (RFU) (human LIV-1 [1])	Internalization EC50 (human LIV-1 [2])	Internalization Top (RFU) (human LIV-1 [2])	EC50 (human LIV-1 [3])	Top (MFI) (human LIV-1 [3])	EC50 (cynomolgus LIV-1 [4])	Top (MFI) (cynomolgus LIV-1 [4])	EC50 (cynomolgus LIV-1 [5])	Top (MFI) (cynomolgus LIV-1 [5])	EC50 (human LIV-1 [6])	Top (MFI) (human LIV-1 [6])
56B3E6 (antibody, V domains shown, Tested as chimeric antibody) VH: EVQLQQSGAELVRSGASVKLSCTASGFNIKDYYIHWVKQRPEQGLEWIGWIDPENDDTEYAPKFQGKATMTADTSSNTAYLHLSSLTSEDTAVYYCPHGGGFRVFDSWGQGTTLTVSS VL: DVLMTQTPLSLPVSLGDQASISCRSSQDIVHSNGNTYLEWYLQKPGQSPKLLIYKVSNRFSGVPDRFSGSGSGTDFTLKISRVEAEDLGVYYCFQGSHVPWTFGGGTKLEIK	1300 pM	52300 RFU	5000 pM	388000 RFU	130 pM	13300 MFI	210 pM	9280 MFI	–	–	–	–
72B12F1 (antibody, V domains shown, Tested as chimeric antibody) VH: EVQLQQSGAELVKPGASVKLSCTASGFNIKDTYMHWVKQRPEQGLEWIGRIDPANGNTKNDPRFQGKATITADTSSNTAYLQLSRLTSEDTAVYYCAGGGITTVVPDHWGQGTTLTVSS VL: DVVMTQTPLSLPVSLGDQASISCRSSQSLVHSNGNTYLQWYLQKPGQSPKLLIYKVSNRFSGVPDRFSGSGSGTDFTLKISRVEAEDLGVYFCSQSTHVPYTFGGGTKLEIK	–	–	7200 pM	353000 RFU	790 pM	10700 MFI	360 pM	7470 MFI	–	–	–	–
290F10G10.p1.Z5 (antibody, V domains shown) VH: EVQLVQSGAEVKKPGASVKVSCKASGYTFTSYWIHWVRQAPGQGLEWMGTIYPGDADTRSTQKFKDRVTVTADKSTSTVYMELSSLRSEDTAVYYCARSLIHDDYDKYYFDYWGQGTTVTVSS VL: DIQMTQSPSSLSASVGDRVTITCKARQDINKYIAWYQQKPGKAPKLLIHYTSILQPGIPSRFSGSGSGRDYTFTISSLQPEDIATYYCLQYDYFFTFGGGTKVEIK	–	–	–	–	–	–	–	–	500 pM	7370 MFI	320 pM	7390 MFI
290F10G10.p1.Z10 (antibody, V domains shown) VH: EVQLVQSGAEVKKPGASVKVSCKASGYTFTSYWIHWVRQAPGQGLEWMGTIYPGDADTRSTQKFKDRVTVTADKSTSTVYMELSSLRSEDTAVYYCTRSLIHDDYDKYYFDYWGQGTTVTVSS VL: DIQMTQSPSSLSASVGDRVTITCKARQDINKYIAWYQQKPGKAPKLLIYYTSILQPGVPSRFSGSGSGRDYTFTISSLQPEDIATYYCLQYDYFFTFGGGTKVEIK	–	–	–	–	–	–	–	–	690 pM	6740 MFI	490 pM	7290 MFI
290F10G10.p1.Z9 (antibody, V domains shown) VH: EVQLVQSGAEVKKPGASVKVSCKASGYTFTSYWIHWVRQAPGQGLEWIGTIYPGDADTRSTQKFKDKATVTADKSTSTVYMELSSLRSEDTAVYYCARSLIHDDYDKYYFDYWGQGTTVTVSS VL: DIQMTQSPSSLSASVGDRVTITCKARQDINKYIAWYQHKPGKGPKLLIHYTSILQPGIPSRFSGSGSGRDYTFTISSLQPEDIATYYCLQYDYFFTFGGGTKVEIK	–	–	–	–	–	–	–	–	680 pM	7630 MFI	510 pM	7940 MFI
290F10G10.p1.Z6 (antibody, V domains shown) VH: EVQLVQSGAEVKKPGASVKVSCKASGYTFTSYWIHWVRQAPGQGLEWMGTIYPGDADTRSTQKFKDRVTVTADKSTSTVYMELSSLRSEDTAVYYCARSLIHDDYDKYYFDYWGQGTTVTVSS VL: DIQMTQSPSSLSASVGDRVTITCKARQDINKYIAWYQHKPGKGPKLLIHYTSILQPGIPSRFSGSGSGRDYTFTISSLQPEDIATYYCLQYDYFFTFGGGTKVEIK	–	–	–	–	–	–	–	–	460 pM	6890 MFI	350 pM	7420 MFI
290F10G10.p1.Z1 (antibody, V domains shown) VH: EVQLVQSGAEVKKPGASVKVSCKASGYTFTSYWIHWVRQAPGQGLEWMGTIYPGDADTRSTQKFKDRVTMTADTSTSTVYMELSSLRSEDTAVYYCARSLIHDDYDKYYFDYWGQGTTVTVSS VL: DIQMTQSPSSLSASVGDRVTITCKARQDINKYIAWYQQKPGKAPKLLIYYTSILQPGVPSRFSGSGSGRDYTFTISSLQPEDIATYYCLQYDYFFTFGGGTKVEIK	–	–	–	–	–	–	–	–	850 pM	7190 MFI	560 pM	7540 MFI

More lines, in order of falling EC50 (cynomolgus LIV-1 [5]), values ahead:

ADCC reporter EC50 (human LIV-1 [1])	ADCC reporter Top (RFU) (human LIV-1 [1])	Internalization EC50 (human LIV-1 [2])	Internalization Top (RFU) (human LIV-1 [2])	EC50 (human LIV-1 [3])	Top (MFI) (human LIV-1 [3])	EC50 (cynomolgus LIV-1 [4])	Top (MFI) (cynomolgus LIV-1 [4])	EC50 (cynomolgus LIV-1 [5])	Top (MFI) (cynomolgus LIV-1 [5])	EC50 (human LIV-1 [6])	Top (MFI) (human LIV-1 [6])	Binder
–	–	–	–	–	–	–	–	400 pM	6750 MFI	270 pM	7600 MFI	290F10G10.p1.Z3 (antibody, V domains shown) VH: EVQLVQSGAEVKKPGASVKVSCKASGYTFTSYWIHWVRQAPGQGLEWMGTIYPGDADTRSTQKFKDRVTMTADTSTSTVYMELSSLRSEDTAVYYCARSLIHDDYDKYYFDYWGQGTTVTVSS VL: DIQMTQSPSSLSASVGDRVTITCKARQDINKYIAWYQHKPGKGPKLLIHYTSILQPGIPSRFSGSGSGRDYTFTISSLQPEDIATYYCLQYDYFFTFGGGTKVEIK
–	–	–	–	–	–	–	–	380 pM	7510 MFI	260 pM	7920 MFI	290F10G10.p1.Z12 (antibody, V domains shown) VH: EVQLVQSGAEVKKPGASVKVSCKASGYTFTSYWIHWVRQAPGQGLEWMGTIYPGDADTRSTQKFKDRVTVTADKSTSTVYMELSSLRSEDTAVYYCTRSLIHDDYDKYYFDYWGQGTTVTVSS VL: DIQMTQSPSSLSASVGDRVTITCKARQDINKYIAWYQHKPGKGPKLLIHYTSILQPGIPSRFSGSGSGRDYTFTISSLQPEDIATYYCLQYDYFFTFGGGTKVEIK
–	–	–	–	–	–	–	–	370 pM	7150 MFI	280 pM	7680 MFI	290F10G10.p1.Z7 (antibody, V domains shown) VH: EVQLVQSGAEVKKPGASVKVSCKASGYTFTSYWIHWVRQAPGQGLEWIGTIYPGDADTRSTQKFKDKATVTADKSTSTVYMELSSLRSEDTAVYYCARSLIHDDYDKYYFDYWGQGTTVTVSS VL: DIQMTQSPSSLSASVGDRVTITCKARQDINKYIAWYQQKPGKAPKLLIYYTSILQPGVPSRFSGSGSGRDYTFTISSLQPEDIATYYCLQYDYFFTFGGGTKVEIK
–	–	–	–	–	–	–	–	360 pM	7190 MFI	270 pM	7540 MFI	290F10G10.p1.Z8 (antibody, V domains shown) VH: EVQLVQSGAEVKKPGASVKVSCKASGYTFTSYWIHWVRQAPGQGLEWIGTIYPGDADTRSTQKFKDKATVTADKSTSTVYMELSSLRSEDTAVYYCARSLIHDDYDKYYFDYWGQGTTVTVSS VL: DIQMTQSPSSLSASVGDRVTITCKARQDINKYIAWYQQKPGKAPKLLIHYTSILQPGIPSRFSGSGSGRDYTFTISSLQPEDIATYYCLQYDYFFTFGGGTKVEIK
–	–	–	–	–	–	–	–	340 pM	7140 MFI	240 pM	7790 MFI	290F10G10.p1.Z4 (antibody, V domains shown) VH: EVQLVQSGAEVKKPGASVKVSCKASGYTFTSYWIHWVRQAPGQGLEWMGTIYPGDADTRSTQKFKDRVTVTADKSTSTVYMELSSLRSEDTAVYYCARSLIHDDYDKYYFDYWGQGTTVTVSS VL: DIQMTQSPSSLSASVGDRVTITCKARQDINKYIAWYQQKPGKAPKLLIYYTSILQPGVPSRFSGSGSGRDYTFTISSLQPEDIATYYCLQYDYFFTFGGGTKVEIK
–	–	–	–	–	–	–	–	320 pM	7410 MFI	250 pM	7820 MFI	290F10G10.p1.Z11 (antibody, V domains shown) VH: EVQLVQSGAEVKKPGASVKVSCKASGYTFTSYWIHWVRQAPGQGLEWMGTIYPGDADTRSTQKFKDRVTVTADKSTSTVYMELSSLRSEDTAVYYCTRSLIHDDYDKYYFDYWGQGTTVTVSS VL: DIQMTQSPSSLSASVGDRVTITCKARQDINKYIAWYQQKPGKAPKLLIHYTSILQPGIPSRFSGSGSGRDYTFTISSLQPEDIATYYCLQYDYFFTFGGGTKVEIK
